Reference: publication PMC9381590

Target: endogenous PKM2 (human (endogenous in CRC cells)) (UniProt P14618)
Assay: not stated; monomeric, dimeric and tetrameric forms of endogenous PKM2 in HCT116 cells with or without DDX39B overexpression (Supplementary Fig. 7c)

Sequence of endogenous PKM2, P14618 1-531 (natural protein; other documents disagree on this pair) (P14618 whole entry): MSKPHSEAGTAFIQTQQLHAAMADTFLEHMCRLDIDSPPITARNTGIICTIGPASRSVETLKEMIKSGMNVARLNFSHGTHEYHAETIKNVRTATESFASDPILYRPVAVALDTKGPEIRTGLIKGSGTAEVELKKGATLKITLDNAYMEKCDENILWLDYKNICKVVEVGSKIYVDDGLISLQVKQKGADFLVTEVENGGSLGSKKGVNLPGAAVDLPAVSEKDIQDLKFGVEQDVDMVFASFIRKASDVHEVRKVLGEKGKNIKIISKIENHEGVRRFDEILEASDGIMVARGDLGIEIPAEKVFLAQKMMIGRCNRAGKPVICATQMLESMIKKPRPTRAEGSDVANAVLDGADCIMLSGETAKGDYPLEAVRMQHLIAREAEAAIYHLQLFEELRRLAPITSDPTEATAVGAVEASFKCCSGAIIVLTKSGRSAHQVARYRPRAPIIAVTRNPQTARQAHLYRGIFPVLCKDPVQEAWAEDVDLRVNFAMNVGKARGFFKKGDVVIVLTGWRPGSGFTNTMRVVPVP

stoichiometry N: 2
Substance: endogenous PKM2, P14618 1-531 (natural protein; other documents disagree on this pair)
